Data on three substances can be found in paper PMC9980222.

Bounds are passed on as bounds.

For experiment [1], the target named is BG505 SOSIP.664-His trimer (HIV-1 isolate BG505 (Clade A)). Briefly: SPR. (In SPR one partner is held on a chip, and binding of the other changes the refractive index at the surface.)
The target of experiment [2] is B41 SOSIP.664-His trimer (HIV-1 isolate B41 (Clade B)). Briefly: native gel or EMSA. A general note: A gel shift assay detects complexes by their altered migration in electrophoresis.
The target is the same in experiment [3]. Briefly: negative-stain electron microscopy.
For experiment [4], the target named is BG505 SOSIP.664-His trimer (HIV-1 isolate BG505 (Clade A)).

As to PGT151 Fab, in experiment [1], the KD1 (site 1, heterogeneous-ligand model) was below 0.1 nM; the KD2 (site 2, heterogeneous-ligand model) is 27 nM; the dissociation constant (Kd) (commonly the constant that tells how readily two partners part at equilibrium) was determined as 2 nM; the Sm1 (stoichiometry of site 1, heterogeneous-ligand model) (Fab molecules per trimer) stood at 1.2. In experiment [1], the Sm1+Sm2 (cumulative stoichiometry, heterogeneous-ligand model) (Fab molecules per trimer) was determined as 1.9; the Sm2 (stoichiometry of site 2, heterogeneous-ligand model) (Fab molecules per trimer) turned out to be 0.7; the koff (as a rule, a measure of how fast the partners let go of each other) came out at 0.00018 s⁻¹; the koff1 (site 1, heterogeneous-ligand model) was below 1e-05 s⁻¹. Further, in experiment [1], the koff2 (site 2, heterogeneous-ligand model) came out at 0.00076 s⁻¹; the kon (commonly the second-order rate constant of association) was determined as 87000 M⁻¹ s⁻¹; the kon1 (site 1, heterogeneous-ligand model) was 140000 M⁻¹ s⁻¹; the kon2 (site 2, heterogeneous-ligand model) was determined as 28000 M⁻¹ s⁻¹. The substance also gave a stoichiometry N (Fab molecules per trimer) in experiment [1] of 1.9.

Turning to B41 SOSIP.664-His trimer (complex), the stoichiometry N in experiment [2] and in experiment [3] was 3 in each case.

The substance PGT151 IgG (antibody) yielded an IC50 of neutralization of BG505 Env-pseudotyped virus, TZM-bl assay in experiment [4] of 0.043 µg/mL.
